# Source: patent publication US6140129
# Tested on: FLP recombinase (Saccharomyces cerevisiae (2-micron plasmid))
# Test: cell_activity
substance,measurement,setting,value
E. coli chromosome without FRT,activity (Tet^R colonies per trial),"no chromosomal FRT, 4 experiments",0
same,activity (colonies per plate),"non-target strain with IPTG, 0 without",1
minimal wild-type FRT (from pJFS36),activity (colonies per plate),"lambda FRT36 integration at lacZ-FRT with IPTG (39 without), lacY-FRT 206 with and 247 without",139
